Article PMC3411732, “Binding of the Heterogeneous Ribonucleoprotein K (hnRNP K) to the Epstein-Barr Virus Nuclear Antigen 2 (EBNA2) Enhances Viral LMP2A Expression” (PLoS ONE, 2012)

Target: T1, EBNA2-wt, transiently expressed in HEK 293-T cells (Epstein-Barr virus, UniProt P12978 1-487, arginines of the RG-repeat (aa 339–354) symmetrically or asymmetrically di-methylated (SDMA or ADMA))
T1 sequence (looked up): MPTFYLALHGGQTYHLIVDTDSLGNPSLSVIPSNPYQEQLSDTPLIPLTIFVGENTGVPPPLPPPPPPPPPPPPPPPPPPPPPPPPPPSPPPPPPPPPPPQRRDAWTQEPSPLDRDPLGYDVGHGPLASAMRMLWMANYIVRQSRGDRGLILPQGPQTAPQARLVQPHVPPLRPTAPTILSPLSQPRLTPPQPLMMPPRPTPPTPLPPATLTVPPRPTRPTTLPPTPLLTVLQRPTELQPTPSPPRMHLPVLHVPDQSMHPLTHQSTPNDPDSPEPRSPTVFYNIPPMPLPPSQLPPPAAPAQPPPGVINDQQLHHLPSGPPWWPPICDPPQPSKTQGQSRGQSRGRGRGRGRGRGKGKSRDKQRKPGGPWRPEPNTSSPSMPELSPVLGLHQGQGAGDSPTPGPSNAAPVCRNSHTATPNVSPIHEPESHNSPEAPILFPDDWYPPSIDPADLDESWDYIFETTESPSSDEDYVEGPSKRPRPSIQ
Assay: cell-based or functional assay

B1: GFP-hnRNP K (wild type), expressed in 293T cells (natural protein)
chain: not shown
For B1, the “LMP2A promoter luciferase reporter in DG75 cells; co-expression of hnRNP K-wt (pSG5-HA-hnRNP K) with EBNA2-wt (pSG5-EBNA2)” value was at most 3 fold.
